Source: article PMC10940770, “Loss of function and reduced levels of sphingolipid desaturase DEGS1 variants are both relevant in disease mechanism” (Journal of Lipid Research, 2024)
Residue numbers refer to the chain shown, from its start. Names and notes keep the numbering of the source.

B1: DEGS1 (Homo sapiens) (protein)
chain: GSRVSREDFEWVYTDQPHADRRREILAKYPEIKSLMKPDPNLIWIIIMMVLTQLGAFYIVKDLDWKWVIFGAYAFGSCINHSMTLAIHEIAHNAAFGNCKAMWNRWFGMFANLPIGIPYSISFKRYHMDHHRYLGADGVDVDIPTDFEGWFFCTAFRKFIWVILQPLFYAFRPLFINPKPITYLEVINTVAQVTFDILIYYFLGIKSLVYMLAASLLGLGLHPISGHFIAEHYMFLKGHETYSYYGPLNLLTFNVGYHNEHHDFPNIPGKSLPLVRKIAAEYYDNLPHYNSWIKVLYDFVMDDTISPYSRMKRHQKGEMVLE
notes: full-length cDNA (from Hep3B RNA) in pcDNA3, untagged, transfected into DEGS1-knockout HEK-293T (KO-DES-HEK); cell homogenate with Triton X-100
B2: DEGS1 (Homo sapiens; N255S) (protein)
chain: B1 chain with N254S
notes: as for B1
B3: DEGS1 (Homo sapiens; A280V) (protein)
chain: B1 chain with A279V
notes: as for B1
B4: DEGS1 (Homo sapiens; L175Q) (protein)
chain: B1 chain with L174Q
notes: as for B1
B5: DEGS1 (Homo sapiens; N189D) (protein)
chain: B1 chain with N188D
notes: as for B1
B6: DEGS2 (Homo sapiens) (protein)
chain: GNSASRSDFEWVYTDQPHTQRRKEILAKYPAIKALMRPDPRLKWAVLVLVLVQMLACWLVRGLAWRWLLFWAYAFGGCVNHSLTLAIHDISHNAAFGTGRAARNRWLAVFANLPVGVPYAASFKKYHVDHHRYLGGDGLDVDVPTRLEGWFFCTPARKLLWLVLQPFFYSLRPLCVHPKAVTRMEVLNTLVQLAADLAIFALWGLKPVVYLLASSFLGLGLHPISGHFVAEHYMFLKGHETYSYYGPLNWITFNVGYHVEHHDFPSIPGYNLPLVRKIAPEYYDHLPQHHSWVKVLWDFVFEDSLGPYARVKRVYRLAKDGL
notes: full-length cDNA (from colon mucosa RNA) in pcDNA3, transfected into DEGS1-knockout HEK-293T (KO-DES-HEK); cell homogenate with Triton X-100

Key:
[1] = substrate: CCCCCCCCCCCCCCC[C@@H](O)[C@H](CO)NC(=O)CCCCCCCCCCCC; assay: LC-MS/MS of C13-Cerd7 formed; Hanes-Woolf plot; type: biochemical, Homo sapiens; settings: 0.2 M Tris/HCl pH 7, 0.2% Triton X-100, 1 mM NADPH, 37°C, deuterated substrate
Description: LC-MS/MS of C13-Cerd7 formed; Hanes-Woolf plot on DEGS1

[2] = substrate: CCCCCCCCCCCCCCC[C@@H](O)[C@H](CO)NC(=O)CCCCCCCCCCCC; assay: LC-MS/MS of C13-Cerd7 formed; Hanes-Woolf plot; type: biochemical, Homo sapiens; settings: homogenate of transfected KO-DES-HEK (80 μg, 30 min) plus 100 μg KO-DES-HEK homogenate, 0.2 M Tris/HCl pH 7, 0.2% Triton X-100, 1 mM NADPH, 37°C, deuterated substrate
Description: LC-MS/MS of C13-Cerd7 formed; Hanes-Woolf plot on DEGS2

[3] = homogenate of transfected KO-DES-HEK (80 μg, 30 min) plus 100 μg KO-DES-HEK homogenate

| Protein | Km [1, 3] [µM] | other results |
| --- | --- | --- |
| B1 | – | Km ([1]; homogenate of transfected KO-DES-HEK (40 μg, 10 min) plus 100 μg KO-DES-HEK homogenate): 2.41 µM |
| B2 | 4.34 | – |
| B3 | 3.29 | – |
| B4 | 5.99 | – |
| B5 | 2.75 | – |
| B6 | – | Km [2]: 15.31 µM |
